According to the Immune Epitope Database (IEDB):

How the values were obtained:
[1] = target: HLA-B*58:01; assay: IEDB peptide-MHC binding, purified MHC/direct/fluorescence; filed as Kd, often an IC50 or EC50 that approximates it; ≥ and ≤ were set here for values at or beyond the usual limits of such assays; conditions: source organism: dengue virus type 3
[2] = target: HLA-A*69:01; assay: as above; conditions: source organism: dengue virus type 3
[3] = target: HLA-B*15:01; assay: as above
[4] = target: HLA-B*44:02; assay: as above; conditions: source organism: dengue virus type 3
[5] = target: HLA-B*27:05; assay: as above; conditions: source organism: dengue virus type 3
[6] = target: HLA-A*31:01; assay: as above; conditions: source organism: dengue virus type 3
[7] = target: HLA-A*11:01; assay: as above; conditions: source organism: dengue virus type 3
[8] = target: HLA-B*07:02; assay: as above; conditions: source organism: dengue virus type 3
[9] = target: HLA-B*40:01; assay: as above; conditions: source organism: dengue virus type 3
[10] = target: HLA-A*02:01; assay: as above; conditions: source organism: dengue virus type 3
[11] = target: HLA-A*01:01; assay: as above; conditions: source organism: dengue virus type 3
[12] = target: HLA-A*03:01; assay: as above; conditions: source organism: dengue virus type 3
[13] = target: HLA-A*30:02; assay: IEDB peptide-MHC binding, purified MHC/competitive/radioactivity; filed as Kd, often an IC50 or EC50 that approximates it; ≥ and ≤ were set here for values at or beyond the usual limits of such assays; conditions: source organism: Dengue virus 3 Martinique/1243/1999
[14] = target: HLA-A*02:06; assay: as above
[15] = target: HLA-A*02:03; assay: as above
[16] = target: HLA-A*02:02; assay: as above
[17] = target: HLA-A*02:01; assay: as above
[18] = target: HLA-A*68:02; assay: as above
[19] = target: HLA-B*46:01; assay: IEDB peptide-MHC binding, purified MHC/direct/fluorescence; filed as Kd, often an IC50 or EC50 that approximates it; ≥ and ≤ were set here for values at or beyond the usual limits of such assays; conditions: source organism: Mammarenavirus lassaense
[20] = target: HLA-B*51:01; assay: IEDB peptide-MHC binding, purified MHC/competitive/radioactivity; filed as Kd, often an IC50 or EC50 that approximates it; ≥ and ≤ were set here for values at or beyond the usual limits of such assays
[21] = target: HLA-B*53:01; assay: as above
[22] = target: HLA-B*07:02; assay: as above
[23] = target: HLA-B*35:01; assay: as above
[24] = target: HLA-B*54:01; assay: as above
[25] = target: HLA-A*24:03; assay: IEDB peptide-MHC binding, purified MHC/direct/fluorescence; filed as Kd, often an IC50 or EC50 that approximates it; ≥ and ≤ were set here for values at or beyond the usual limits of such assays; conditions: source organism: Mycobacterium tuberculosis
[26] = target: HLA-B*51:01; assay: IEDB peptide-MHC binding, purified MHC/competitive/fluorescence; filed as Kd, often an IC50 or EC50 that approximates it; ≥ and ≤ were set here for values at or beyond the usual limits of such assays; conditions: source organism: Campylobacter jejuni subsp. jejuni NCTC 11168 = ATCC 700819
[27] = source organism: Triticum aestivum
[28] = source organism: Vaccinia virus WR
[29] = source organism: SARS coronavirus Tor2
[30] = source organism: Trypanosoma cruzi

TSEHGGRAY
Kd [1]: ≥ 20000 nM
Kd [2]: ≥ 20000 nM
Kd ([3]; source organism: dengue virus type 3): 248 nM
Kd [4]: ≥ 20000 nM
Kd [5]: ≥ 20000 nM
Kd [6]: ≥ 20000 nM
Kd [7]: ≥ 20000 nM
Kd [8]: ≥ 20000 nM
Kd [9]: ≥ 20000 nM
Kd [10]: ≥ 20000 nM
Kd [11]: 337 nM
Kd [12]: ≥ 20000 nM
Kd [13]: ≥ 67200 nM

SQVSFQQPL
Kd [14, 27]: 14.3 nM
Kd [15, 27]: 138 nM
Kd [16, 27]: 4.46 nM
Kd [17, 27]: 256 nM
Kd [18, 27]: 206 nM

TQLMPFGCLL
Kd ([17]; source organism: Homo sapiens): 257 nM

KQFKQDAKY
Kd ([3]; source organism: Mammarenavirus lassaense): 173 nM
Kd [19]: ≥ 20000 nM

SPYYIRKESY
Kd [20, 28]: ≥ 69600 nM
Kd [21, 28]: 646 nM
Kd [22, 28]: 65.4 nM
Kd [23, 28]: 101 nM
Kd [24, 28]: 669 nM

MPICMDVRAI
Kd [20, 29]: 2.24 nM
Kd [21, 29]: 5.98 nM
Kd [22, 29]: 300 nM
Kd [23, 29]: 94.8 nM
Kd [24, 29]: 3.96 nM

DPSERVFKKI
Kd [20, 28]: ≥ 46700 nM
Kd [21, 28]: 18200 nM
Kd [22, 28]: ≥ 69600 nM
Kd [23, 28]: ≥ 69900 nM
Kd [24, 28]: ≥ 43300 nM

GLLPLLLLLL
Kd [14, 30]: 16.5 nM
Kd [15, 30]: 89.3 nM
Kd [16, 30]: 89.6 nM
Kd [17, 30]: 66 nM
Kd [18, 30]: ≥ 28200 nM

FPGQQQPF
Kd [20, 27]: ≥ 30600 nM
Kd [21, 27]: ≥ 87700 nM
Kd [22, 27]: ≥ 37400 nM
Kd [23, 27]: ≥ 87800 nM
Kd [24, 27]: ≥ 87700 nM

PYATGPLVF
Kd [25]: 382 nM

KPVDTSNSF
Kd [20, 29]: 898 nM
Kd [21, 29]: 151 nM
Kd [22, 29]: 20.7 nM
Kd [23, 29]: 266 nM
Kd [24, 29]: 5770 nM

KPRSQMETDF
Kd [20, 29]: 2500 nM
Kd [21, 29]: ≥ 53700 nM
Kd [22, 29]: 78.8 nM
Kd [23, 29]: 19500 nM
Kd [24, 29]: ≥ 49300 nM

YPEYNRAVKF
Kd [20, 28]: 857 nM
Kd [21, 28]: 41.7 nM
Kd [22, 28]: 122 nM
Kd [23, 28]: 808 nM
Kd [24, 28]: 473 nM

DPMVIENGI
Kd [20, 28]: 34.6 nM
Kd [21, 28]: 3860 nM
Kd [22, 28]: 388 nM
Kd [23, 28]: 2360 nM
Kd [24, 28]: 485 nM

SLNFMGYVI
Kd ([17]; source organism: Hepatitis B virus ayw/France/Tiollais/1979): 1320 nM

LSILPFFIV
Kd [26]: ≥ 20000 nM

AAGLQDCT
Kd ([17]; source organism: Hepatitis C virus (isolate 1)): ≥ 50000 nM

TMDGILKSI
Kd ([17]; source organism: Lassa virus GA391): ≥ 25000 nM

FPGDKTSYWV
Kd [20, 28]: 50.1 nM
Kd [21, 28]: 14.4 nM
Kd [22, 28]: 261 nM
Kd [23, 28]: 88.8 nM
Kd [24, 28]: 5.36 nM
